Molecular target: the molecule itself
Experiment: single molecule pulldown (SiMPull) with counting of photobleaching steps; surface receptors labelled on live cells with 1 uM SBG-JF549; cells lysed in 1.2% IGEPAL, lysate diluted in 0.1% IGEPAL; receptors captured at low density by biotinylated anti-HA antibody on NeutrAvidin/PEG coverslips; TIRF imaging

B1: HA-SNAP-metabotropic glutamate receptor 2 (receptor, UniProt P31421 19-872, looked up)
chain: EGPAKKVLTLEGDLVLGGLFPVHQKGGPAEECGPVNEHRGIQRLEAMLFALDRINRDPHLLPGVRLGAHILDSCSKDTHALEQALDFVRASLSRGADGSRHICPDGSYATHSDAPTAVTGVIGGSYSDVSIQVANLLRLFQIPQISYASTSAKLSDKSRYDYFARTVPPDFFQAKAMAEILRFFNWTYVSTVASEGDYGETGIEAFELEARARNICVATSEKVGRAMSRAAFEGVVRALLQKPSARVAVLFTRSEDARELLAATQRLNASFTWVASDGWGALESVVAGSERAAEGAITIELASYPISDFASYFQSLDPWNNSRNPWFREFWEERFHCSFRQRDCAAHSLRAVPFEQESKIMFVVNAVYAMAHALHNMHRALCPNTTHLCDAMRPVNGRRLYKDFVLNVKFDAPFRPADTDDEVRFDRFGDGIGRYNIFTYLRAGSGRYRYQKVGYWAEGLTLDTSFIPWASPSAGPLPASRCSEPCLQNEVKSVQPGEVCCWLCIPCQPYEYRLDEFTCADCGLGYWPNASLTGCFELPQEYIRWGDAWAVGPVTIACLGALATLFVLGVFVRHNATPVVKASGRELCYILLGGVFLCYCMTFVFIAKPSTAVCTLRRLGLGTAFSVCYSALLTKTNRIARIFGGAREGAQRPRFISPASQVAICLALISGQLLIVAAWLVVEAPGTGKETAPERREVVTLRCNHRDASMLGSLAYNVLLIALCTLYAFKTRKCPENFNEAKFIGFTMYTTCIIWLAFLPIFYVTSSDYRVQTTTMCVSVSLSGSVVLGCLFAPKLHIILFQPQKNVVSHRAPTSRFGSAAPRASANLGQGSGSQFVPTVCNGREVVDSTTSSL
modifications: JF549 (two-colour experiment: JF549 or JF646) covalently attached to the SNAP-tag
notes: metabotropic glutamate receptor 2 (mGluR2), class C GPCR; The rat receptor is my surmise; also called HA-SNAP-mGluR2; SNAP-mGluR2; source: HEK 293T, transfected, in lysate (1.2% IGEPAL); not shown: SNAP-tag, N-terminal, kept
  stoichiometry N: 2

Source: publication PMC8163392, “Interrogating surface versus intracellular transmembrane receptor populations using cell-impermeable SNAP-tag substrates†” (Chemical Science, 2020)
